Experimental findings from the Immune Epitope Database (IEDB) are described below.

Assay [1] deals with HLA-B*15:01. Put plainly: IEDB peptide-MHC binding, purified MHC/competitive/fluorescence; filed as Kd, often an IC50 or EC50 that approximates it; ≥ and ≤ were set here for values at or beyond the usual limits of such assays. The following applies: source organism: Encephalitozoon cuniculi GB-M1.
Assay [2] has as its target HLA-A*03:01. The assay is described as above. The following applies: source organism: Encephalitozoon cuniculi GB-M1.
Assay [3] deals with HLA-A*26:01. The description is as above. To be noted: source organism: Encephalitozoon cuniculi GB-M1.
The target of another assay is HLA-B*27:03. Described as above. To be noted: source organism: Encephalitozoon cuniculi GB-M1.
Assay [4] concerns the target HLA-B*51:01. Described as above. To be noted: source organism: Encephalitozoon cuniculi GB-M1.
The next assay deals with HLA-B*18:01. The assay is described as above. The following applies: source organism: Encephalitozoon cuniculi GB-M1.
The target of another assay is HLA-A*02:12. The description is as above. The following applies: source organism: Encephalitozoon cuniculi GB-M1.
The target of assay [5] is HLA-B*46:01. The description is as above. The following applies: source organism: Encephalitozoon cuniculi GB-M1.
Assay [6] addresses HLA-A*02:01. The assay is described as above.
Another assay deals with HLA-A*29:02. Described as above. To be noted: source organism: Encephalitozoon cuniculi GB-M1.
The target of assay [7] is HLA-A*24:03. The description is as above. The following applies: source organism: Encephalitozoon cuniculi GB-M1.
A further assay has as its target HLA-A*02:11. The assay is described as above.
The target of the next assay is HLA-A*02:19. The assay is described as above.
Another assay deals with HLA-B*57:01. The description is as above. To be noted: source organism: Encephalitozoon cuniculi GB-M1.
Assay [8] addresses HLA-A*02:03. The description is as above. The following applies: source organism: Encephalitozoon cuniculi GB-M1.
Another assay deals with HLA-B*39:01. The assay is described as above. To be noted: source organism: Encephalitozoon cuniculi GB-M1.
Assay [9] addresses HLA-B*15:01. Briefly: IEDB peptide-MHC binding, purified MHC/direct/fluorescence; filed as Kd, often an IC50 or EC50 that approximates it; ≥ and ≤ were set here for values at or beyond the usual limits of such assays.
Another assay deals with HLA-C*15:02. Described as above. The following applies: source organism: Yellow fever virus.
Assay [10] addresses HLA-B*51:01. The description is as above. The following applies: source organism: Yellow fever virus 17D.
The target of the next assay is HLA-B*35:01. Described as above.
Assay [11] concerns the target HLA-B*46:01. The assay is described as above. To be noted: source organism: Yellow fever virus 17D.
Another assay deals with HLA-C*14:02. The assay is described as above. To be noted: source organism: Yellow fever virus.
A further assay deals with HLA-B*27:05. The assay is described as above. The following applies: source organism: Giardia lamblia ATCC 50803.
Assay [12] addresses HLA-A*03:01. The assay is described as above. The following applies: source organism: Giardia lamblia ATCC 50803.
For assay [13], the target named is HLA-A*26:01. Described as above. The following applies: source organism: Giardia lamblia ATCC 50803.
For the next assay, the target named is HLA-B*44:02. The assay is described as above. To be noted: source organism: Giardia lamblia ATCC 50803.
The target of the next assay is HLA-A*31:01. The description is as above. The following applies: source organism: Giardia lamblia ATCC 50803.
For another assay, the target named is HLA-A*01:01. The assay is described as above. The following applies: source organism: Giardia lamblia ATCC 50803.
A further assay has as its target HLA-A*11:01. Described as above. To be noted: source organism: Giardia lamblia ATCC 50803.
The target in a further assay is HLA-B*08:01. Described as above. The following applies: source organism: Giardia lamblia ATCC 50803.
The target of the next assay is HLA-B*40:01. The assay is described as above. To be noted: source organism: Giardia lamblia ATCC 50803.
Another assay addresses HLA-B*07:02. The assay is described as above. The following applies: source organism: Giardia lamblia ATCC 50803.
The target of assay [14] is HLA-A*02:01. The description is as above. To be noted: source organism: Giardia lamblia ATCC 50803.
Assay [15] addresses HLA-A*24:03. The description is as above. To be noted: source organism: Giardia lamblia ATCC 50803.
Another assay addresses HLA-B*58:01. The assay is described as above. The following applies: source organism: Giardia lamblia ATCC 50803.
Assay [16] deals with HLA-A*69:01. The description is as above. To be noted: source organism: Giardia lamblia ATCC 50803.
A further assay concerns the target HLA-B*83:01. Put plainly: IEDB peptide-MHC binding, purified MHC/competitive/fluorescence; filed as Kd, often an IC50 or EC50 that approximates it; ≥ and ≤ were set here for values at or beyond the usual limits of such assays.
The target in a further assay is HLA-B*15:42. The description is as above.
Another assay deals with HLA-C*04:01. The assay is described as above.
For another assay, the target named is HLA-A*68:02. Described as above. To be noted: source organism: Yersinia pestis Nepal516.
The target of a further assay is HLA-A*02:02. Put plainly: IEDB peptide-MHC binding, purified MHC/competitive/radioactivity; filed as Kd, often an IC50 or EC50 that approximates it; ≥ and ≤ were set here for values at or beyond the usual limits of such assays. The following applies: source organism: HIV-1 M:B_ARV2/SF2.
A further assay addresses HLA-A*02:06. The description is as above. To be noted: source organism: HIV-1 M:B_ARV2/SF2.
Assay [17] has as its target HLA-A*02:03. The assay is described as above. To be noted: source organism: HIV-1 M:B_ARV2/SF2.
For assay [18], the target named is HLA-A*69:01. Put plainly: IEDB peptide-MHC binding, purified MHC/competitive/fluorescence; filed as Kd, often an IC50 or EC50 that approximates it; ≥ and ≤ were set here for values at or beyond the usual limits of such assays. The following applies: source organism: Human immunodeficiency virus type 1 (BH5 ISOLATE).
The target of a further assay is HLA-B*45:06. Described as above. The following applies: source organism: human gammaherpesvirus 4.
The mark [19] stands for this setting: source organism: Encephalitozoon cuniculi GB-M1.
The mark [20] stands for this setting: source organism: Giardia lamblia ATCC 50803.
The mark [21] stands for this setting: source organism: Yersinia pestis Nepal516.
[22] abbreviates: source organism: Human immunodeficiency virus type 1 (BH5 ISOLATE).
Where [23] appears, read: source organism: human gammaherpesvirus 4.

Consider NLFEIEWEE, for which the equilibrium dissociation constant (Kd) with HLA-B*15:01 [1], in the assay with HLA-A*03:01 [2], with HLA-A*26:01 [3], with HLA-B*27:03, with HLA-B*51:01 [4] and with HLA-B*18:01 was at least 20 µM each time. The equilibrium dissociation constant (Kd) in the assay with HLA-A*02:12 is 0.298 µM; with HLA-B*46:01 [5], at least 20 µM; in the assay with HLA-A*02:01 [6] (setting [19]) it was at least 20 µM; in the assay with HLA-A*29:02, at least 20 µM; in the assay with HLA-A*24:03 [7] it was at least 20 µM; in the assay with HLA-A*02:11 (setting [19]) it was at least 20 µM. Besides, the dissociation constant (Kd) in the assay with HLA-A*02:19 (setting [19]), in the assay with HLA-B*57:01, in the assay with HLA-A*02:03 [8] and with HLA-B*39:01 was at least 20 µM in each case.

Turning to RVLDCRTAF, the Kd with HLA-B*15:01 [9] (source organism: Yellow fever virus 17D) is 0.108 µM; with HLA-C*15:02, at least 20 µM; with HLA-B*51:01 [10] it was at least 20 µM; with HLA-B*35:01 (source organism: Yellow fever virus), 0.324 µM; in the assay with HLA-B*46:01 [11] it was at least 20 µM; in the assay with HLA-C*14:02, 0.349 µM.

Turning to QTSTLYDFY, the Kd with HLA-B*15:01 [9] (setting [20]) is 1.71 µM; with HLA-B*27:05 it was at least 20 µM; with HLA-A*03:01 [12], at least 20 µM; with HLA-A*26:01 [13], at least 20 µM; with HLA-B*44:02, at least 20 µM; with HLA-A*31:01, at least 20 µM. For the same sequence, the Kd with HLA-A*01:01 is 0.0397 µM; with HLA-A*11:01 it was at least 20 µM; with HLA-B*08:01, at least 20 µM; in the assay with HLA-B*40:01 it was at least 20 µM; in the assay with HLA-B*35:01 (setting [20]), 0.0286 µM; with HLA-B*07:02, at least 20 µM. The Kd with HLA-A*02:01 [14] was at least 20 µM; in the assay with HLA-A*24:03 [15], at least 20 µM; in the assay with HLA-B*58:01, 3.79 µM; in the assay with HLA-A*69:01 [16] it was at least 20 µM.

In the case of SLQECVKMA, the results for the Kd with HLA-A*02:01 [6] (setting [20]) and with HLA-A*02:11 (setting [20]) were 0.0007 µM and 0.0021 µM, respectively.

In the case of MTHPQSEAA, the Kd with HLA-B*83:01 (setting [21]) was at least 5 µM; in the assay with HLA-B*15:42 (setting [21]), at least 5 µM; with HLA-C*04:01 (setting [21]), at least 5 µM; with HLA-A*68:02 it was at most 0.0001 µM.

VLAEAMSQV: the equilibrium dissociation constant (Kd) in the assay with HLA-A*02:02 was 0.00243 µM; with HLA-A*02:06, 0.0131 µM; with HLA-A*02:03 [17], 0.00437 µM; with HLA-A*02:01 [6] (setting [22]), 0.0275 µM; in the assay with HLA-A*02:11 (setting [22]) it was at most 0.0001 µM; with HLA-A*02:19 (setting [22]), 0.00125 µM. The sequence further gave a dissociation constant Kd in the assay with HLA-A*69:01 [18] of 0.0827 µM.

In the case of WEMRAGREI, the dissociation constant Kd in the assay with HLA-B*45:06, with HLA-B*83:01 (setting [23]), in the assay with HLA-B*15:42 (setting [23]) and with HLA-C*04:01 (setting [23]) was at least 5 µM throughout.
